Reference: US20180339041A1 (Kyowa Kirin, published 2018)
Positions count from the first letter of the chain named. In names and notes the source's numbering stands.

T1: C-terminally FLAG-tagged human Gas6 recombinant protein (hGas6-F) (human, UniProt Q14393 31-678, gamma-carboxylated glutamic acid residues in the Gla domain (producer cells co-express rat VKOR and human GGCX); positions not given)
T1 construct: also called human Gas6-F; human Gas6 protein
T1 sequence: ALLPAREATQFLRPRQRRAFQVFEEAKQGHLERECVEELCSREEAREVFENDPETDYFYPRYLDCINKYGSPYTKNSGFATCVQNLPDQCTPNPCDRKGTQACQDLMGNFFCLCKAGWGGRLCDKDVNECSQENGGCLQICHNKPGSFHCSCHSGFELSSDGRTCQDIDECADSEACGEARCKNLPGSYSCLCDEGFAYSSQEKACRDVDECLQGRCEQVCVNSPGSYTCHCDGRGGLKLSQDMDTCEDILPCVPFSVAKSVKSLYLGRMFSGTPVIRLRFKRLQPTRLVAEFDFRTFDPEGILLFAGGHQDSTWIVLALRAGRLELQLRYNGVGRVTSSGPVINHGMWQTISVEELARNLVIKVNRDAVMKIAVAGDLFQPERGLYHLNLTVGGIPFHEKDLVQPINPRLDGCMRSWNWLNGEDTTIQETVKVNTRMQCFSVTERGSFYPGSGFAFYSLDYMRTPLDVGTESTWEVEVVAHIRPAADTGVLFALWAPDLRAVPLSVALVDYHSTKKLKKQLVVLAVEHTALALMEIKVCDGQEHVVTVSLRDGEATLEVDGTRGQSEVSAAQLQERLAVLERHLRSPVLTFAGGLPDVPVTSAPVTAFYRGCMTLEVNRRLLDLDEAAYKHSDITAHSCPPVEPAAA

B1: hzKM5320 LV3HV8 antibody (antibody, V domains shown)
VH: QIQLVQSGPELKKPGASVKISCKASGYTFTNYGMNWVKQAPGQGLKWMGWINTETGEPTYSDDFKGRFVFSLDTSVTTAYLQISSLKAEDTATYFCAREDGYYGTLDYWGQGTTVTVSS
VL: DVVMTQSPDSLAVSLGERVTINCKASQSVSNDVAWYQQKPGQSPKVLIYYASNRYTGVPDRFSGSGSGTDFTFTISSLQAEDVAVYFCQQDYSSPWTFGQGTKLEIK
notes: Humanized; variant human IgG4 constant region (EU S228P, L235E, R409K), human kappa; also called A-15
B2: hzKM5320 LV0HV8 antibody (antibody, V domains shown)
VH: B1 VH
VL: B1 VL with V46L, F73L, F87Y
notes: Humanized; variant human IgG4 constant region (EU S228P, L235E, R409K), human kappa; also called A-10
B3: hzKM5320 LV1aHV0 antibody (antibody, V domains shown)
VH: B1 VH with I2V, P9S, I20V, K38R, K46E, T77S, T93V, F95Y
VL: B1 VL with V46L, F73L
notes: Humanized; variant human IgG4 constant region (EU S228P, L235E, R409K), human kappa; also called A-03
B4: hzKM5320 LV2aHV8 antibody (antibody, V domains shown)
VH: B1 VH
VL: B1 VL with V46L, F73L, L78V
notes: Humanized; variant human IgG4 constant region (EU S228P, L235E, R409K), human kappa; also called A-13
B5: hzKM5320 LV6HV8 antibody (antibody, V domains shown)
VH: B1 VH
VL: B1 VL with V2I, L15A, L78V
notes: Humanized; variant human IgG4 constant region (EU S228P, L235E, R409K), human kappa; also called A-17
B6: hzKM5320 LV1bHV8 antibody (antibody, V domains shown)
VH: B1 VH
VL: B1 VL with V46L, F73L, L78V, F87Y
notes: Humanized; variant human IgG4 constant region (EU S228P, L235E, R409K), human kappa; also called A-12
B7: hzKM5320 LV5HV6 antibody (antibody, V domains shown)
VH: B1 VH with I2V, T77S
VL: B1 VL with V2I, L78V
notes: Humanized; variant human IgG4 constant region (EU S228P, L235E, R409K), human kappa; also called A-25
B8: hzKM5320 LV6HV0 antibody (antibody, V domains shown)
VH: B1 VH with I2V, P9S, I20V, K38R, K46E, T77S, T93V, F95Y
VL: B1 VL with V2I, L15A, L78V
notes: Humanized; variant human IgG4 constant region (EU S228P, L235E, R409K), human kappa; also called A-09
B9: hzKM5320 LV2bHV0 antibody (antibody, V domains shown)
VH: B1 VH with I2V, P9S, I20V, K38R, K46E, T77S, T93V, F95Y
VL: B1 VL with L15A, V46L, F87Y
notes: Humanized; variant human IgG4 constant region (EU S228P, L235E, R409K), human kappa; also called A-06
B10: hzKM5320 LV2aHV0 antibody (antibody, V domains shown)
VH: B1 VH with I2V, P9S, I20V, K38R, K46E, T77S, T93V, F95Y
VL: B1 VL with V46L, F73L, L78V
notes: Humanized; variant human IgG4 constant region (EU S228P, L235E, R409K), human kappa; also called A-05
B11: hzKM5320 LV5HV8 antibody (antibody, V domains shown)
VH: B1 VH
VL: B1 VL with V2I, L78V
notes: Humanized; variant human IgG4 constant region (EU S228P, L235E, R409K), human kappa; also called A-16
B12: hzKM5320 LV1aHV8 antibody (antibody, V domains shown)
VH: B1 VH
VL: B1 VL with V46L, F73L
notes: Humanized; variant human IgG4 constant region (EU S228P, L235E, R409K), human kappa; also called A-11
B13: hzKM5320 LV5HV3b antibody (antibody, V domains shown)
VH: B1 VH with P9S, K38R, K46E, T77S, T93V
VL: B1 VL with V2I, L78V
notes: Humanized; variant human IgG4 constant region (EU S228P, L235E, R409K), human kappa; also called A-22
B14: hzKM5320 LV5HV3c antibody (antibody, V domains shown)
VH: B1 VH with I2V, I20V, T77S, T93V, F95Y
VL: B1 VL with V2I, L78V
notes: Humanized; variant human IgG4 constant region (EU S228P, L235E, R409K), human kappa; also called A-23
B15: hzKM5320 LV3HV0 antibody (antibody, V domains shown)
VH: B1 VH with I2V, P9S, I20V, K38R, K46E, T77S, T93V, F95Y
VL: B1 VL
notes: Humanized; variant human IgG4 constant region (EU S228P, L235E, R409K), human kappa; also called A-07
B16: hzKM5320 LV5HV1 antibody (antibody, V domains shown)
VH: B1 VH with I2V, P9S, I20V, K38R, T77S, T93V, F95Y
VL: B1 VL with V2I, L78V
notes: Humanized; variant human IgG4 constant region (EU S228P, L235E, R409K), human kappa; also called A-19

Molecular target: T1, C-terminally FLAG-tagged human Gas6 …
Test: SPR Biacore T100, captured antibody, Gas6 analyte, first test
Method: An anti-human IgG antibody was immobilized on a CM5 sensor chip (manufactured by GE Healthcare Japan Corp.) using Human Antibody Capture Kit (manufactured by GE Healthcare Japan Corp.) according to the attached manual. Each test antibody adjusted to 1 μg/mL was added for 10 seconds at a flow rate of 10 μL/min to flow cells. […] The measurement was performed by the […] method. The obtained sensorgram was analyzed using Bia Evaluation Software (manufactured by GE Healthcare Japan Corp.), and the kinetic constant of each antibody was calculated.

| Kd [nM] | koff [s⁻¹] | kon [M⁻¹ s⁻¹] | Binder |
| --- | --- | --- | --- |
| < 2.3 | 0.000174 | > 75600 | B1 |
| < 9.79 | 0.000714 | > 72900 | B2 |
| < 12.6 | 0.000829 | > 65700 | B3 |
| < 10.2 | 0.0008 | > 78600 | B4 |
| < 2.18 | 0.000158 | > 72500 | B5 |
| < 11 | 0.000856 | > 77900 | B6 |
| < 1.8 | 0.000147 | > 81700 | B7 |
| < 3.22 | 0.000216 | > 67200 | B8 |
| < 14.4 | 0.00104 | > 72600 | B9 |
| < 15.2 | 0.00105 | > 69100 | B10 |
| < 2.11 | 0.000155 | > 73600 | B11 |
| < 9.64 | 0.000694 | > 72000 | B12 |
| < 2.01 | 0.000153 | > 76300 | B13 |
| < 1.79 | 0.00014 | > 77900 | B14 |
| < 2.91 | 0.000209 | > 71900 | B15 |
| < 2.48 | 0.000184 | > 74100 | B16 |
